Source: patent publication EP0797662B1 (NEW YORK UNIVERSITY, dated 1995)

Biological target: T1, SHC (54 kDa band, in lysates of NIH 3T3 cells expressing the EGFR/HER2 chimera) (mouse, UniProt P98083-2 1-469, limits assumed, tyrosine phosphorylated after EGF stimulation)
T1 sequence (looked up): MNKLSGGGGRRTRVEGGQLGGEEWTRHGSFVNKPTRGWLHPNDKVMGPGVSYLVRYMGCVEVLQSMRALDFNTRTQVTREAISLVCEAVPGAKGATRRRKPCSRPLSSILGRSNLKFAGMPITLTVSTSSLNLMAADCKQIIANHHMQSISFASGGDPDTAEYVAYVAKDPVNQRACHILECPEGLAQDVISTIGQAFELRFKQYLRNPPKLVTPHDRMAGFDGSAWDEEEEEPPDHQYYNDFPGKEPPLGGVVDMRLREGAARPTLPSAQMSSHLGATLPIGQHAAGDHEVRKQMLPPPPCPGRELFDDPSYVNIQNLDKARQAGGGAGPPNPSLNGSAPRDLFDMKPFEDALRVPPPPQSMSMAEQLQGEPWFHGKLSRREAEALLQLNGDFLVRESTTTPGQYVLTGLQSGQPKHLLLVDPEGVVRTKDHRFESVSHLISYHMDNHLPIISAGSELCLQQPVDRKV
Test: blot of lysate of NIH 3T3 cells with the chimera probed with 32P-labelled GST-GRB-7 SH2

B1: GST fusion protein of the GRB-7 SH2 domain (amino acids 419-535) in pGSTag (other, mouse, UniProt Q03160 419-535, looked up)
chain: CSGSSLSAAIHRTQPWFHGRISREESQRLIGQQGLVDGVFLVRESQRNPQGFVLSLCHLQKVKHYLILPSEDEGCLYFSMDEGQTRFTDLLQLVEFHQLNRGILPCLLRHCCARVAL
modifications: 32P-phosphate at the protein kinase A site of the vector when used as the probe
notes: range 419-535; also called GST-GRB-7-SH2; [32P]GRB-7 SH2 domain; not shown: glutathione S-transferase of the pGSTag vector; protein kinase A phosphorylation site and linker of pGSTag
binding result: binds
